# ± gives the uncertainty stated by the source.
# Assay: self-splicing fitness, log relative to wild type (ln ratio); higher = more splicing; Tetrahymena group I intron in knt gene, E. coli kanamycin selection, DiMSum; sequences stand for … in CUCUCU…GGAGGGAAAAGUUAUCAGGCAUGCACCUGGUAGCUAGUCUUUAAACCAAUAGAUUGCAUCGGUUUAAAAGGCAAGACCGUCAAAUUGCGGGAAAGGGGUCAACAGCCGUUCAGUACCAAGUCUCAGGGGAAACUUUGAGAUGGCCUUGCAAAGGGUAUGGUAAUAAGCUGACGGACAUGGUCCUAACCACGCAGCCAAGUCCUAAGUCAACAGAUCUUCUGUUGAUAUGGAUGCAGUUCACAGACUAAAUGUCGGUCGGGGAAGAUGUAUUCUUCUCAUAAGAUAUAGUCGGACCUCUCCUUAAUGGGAGCUAGCGGAUGAAGUGAUGCAACACUGGAGCCGCUGGGAACUAAUUUGUAUGCGAAAGUAUAUUGAUUAGUUUUGGAGUACUCGUGGUCG
# How it was run: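 The eight P1ex-region nucleotides of an intron in the knt kanamycin-resistance gene on pET-22b(+) were all randomised and the library put into E. coli BL21(DE3). Six replicate transformations were grown overnight at 37°C or 30°C on LB agar with or without 25 μg/mL kanamycin, together with 100 μg/mL carbenicillin, 50 μM IPTG and 0.2% rhamnose. Colonies were pooled and amplicon-sequenced on an Illumina HiSeq 2500. Fitness from DiMSum is the error-weighted combination of wild-type-normalised replicate fold changes, kanamycin over none.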
Sequence,self-splicing fitness (ln) (30 °C),self-splicing fitness (ln) (37 °C)
GAUCAGCAAUAUUACGCCGG,-1.75 ± 0.18,-1.41 ± 0.21
GAUCAGCAAUAUUACGCUAU,-0.967 ± 0.24,-0.471 ± 0.15
GAUCAGCAAUAUUACGCUCA,-0.493 ± 0.084,-0.611 ± 0.1
GAUCAGCAAUAUUACGCUCG,0.0547 ± 0.089,-0.0564 ± 0.12
GAUCAGCAAUAUUACGGAAC,-0.655 ± 0.094,-0.0305 ± 0.12
GAUCAGCAAUAUUACGGAAU,-1.27 ± 0.065,-0.181 ± 0.087
GAUCAGCAAUAUUACGGAGU,-1.16 ± 0.077,-0.717 ± 0.11
GAUCAGCAAUAUUACGGCCC,-1.65 ± 0.21,-0.61 ± 0.2
GAUCAGCAAUAUUACGGGGC,-3.2 ± 0.25,-2.38 ± 0.22
GAUCAGCAAUAUUACGGGUC,-3.38 ± 0.21,-3.05 ± 0.25
GAUCAGCAAUAUUACGGUGG,-1.36 ± 0.057,-0.762 ± 0.073
GAUCAGCAAUAUUACGUAGC,-0.999 ± 0.11,-0.402 ± 0.12
GAUCAGCAAUAUUACGUCCA,-0.96 ± 0.18,-0.173 ± 0.17
GAUCAGCAAUAUUACGUGUA,-1.36 ± 0.069,-0.723 ± 0.082
GAUCAGCAAUAUUACGUUCA,-0.939 ± 0.15,-0.942 ± 0.18
GAUGAGCAAUAUUACGAAAU,-1.53 ± 0.18,-1.92 ± 0.37
GAUGAGCAAUAUUACGAAGG,-1.14 ± 0.26,
GAUGAGCAAUAUUACGAAUC,-3.19 ± 0.41,-1.89 ± 0.29
GAUGAGCAAUAUUACGACAU,-1.797 ± 0.016,-1.02 ± 0.034
GAUGAGCAAUAUUACGACCG,-2.84 ± 0.36,-1.95 ± 0.43
GAUGAGCAAUAUUACGACUA,-1.79 ± 0.12,-0.933 ± 0.11
GAUGAGCAAUAUUACGCGAA,-3.16 ± 0.16,-2.04 ± 0.17

Sequence,self-splicing fitness (ln) (30 °C),self-splicing fitness (ln) (37 °C)
GAUGAGCAAUAUUACGCUGC,,-1.25 ± 0.48
GAUGAGCAAUAUUACGCUGG,-2.08 ± 0.18,-1.02 ± 0.3
GAUGAGCAAUAUUACGGACU,-1.79 ± 0.25,-1.66 ± 0.38
GAUGAGCAAUAUUACGGAGA,-2.91 ± 0.5,-3 ± 0.47
GAUGAGCAAUAUUACGGCAU,-1.71 ± 0.29,-1.79 ± 0.39
GAUGAGCAAUAUUACGGCUA,-1.01 ± 0.17,-1.41 ± 0.17
GAUGAGCAAUAUUACGGCUG,-1.42 ± 0.19,-1.36 ± 0.16
GAUGAGCAAUAUUACGGGAG,-3.76 ± 0.25,-1.54 ± 0.41
GAUGAGCAAUAUUACGGGGU,-3.36 ± 0.23,-2.92 ± 0.32
GAUGAGCAAUAUUACGGUAA,-2.21 ± 0.29,-2.95 ± 0.38
GAUGAGCAAUAUUACGGUGU,-3.67 ± 0.22,-1.15 ± 0.13
GAUGAGCAAUAUUACGGUUG,-3.87 ± 0.21,-2.22 ± 0.18
GAUGAGCAAUAUUACGUCAU,-3.15 ± 0.32,-2.99 ± 0.32
GAUGAGCAAUAUUACGUCCC,-2.06 ± 0.43,-1.04 ± 0.44
GAUGAGCAAUAUUACGUCGU,-2.4 ± 0.15,-2.13 ± 0.17
GAUGAGCAAUAUUACGUGCU,-2.91 ± 0.44,
GAUGAGCAAUAUUACGUGGG,-3.45 ± 0.21,-3.04 ± 0.27
GAUGAGCAAUAUUACGUUCG,-2.05 ± 0.14,-0.925 ± 0.18
GAUUAGCAAUAUUACGAACU,-0.696 ± 0.15,-0.559 ± 0.19
GAUUAGCAAUAUUACGACGC,0.277 ± 0.14,0.361 ± 0.14
GAUUAGCAAUAUUACGAGCA,-1.27 ± 0.17,0.106 ± 0.14
